The values that follow are results of earlier work, collected in article PMC10530501.

pKd: −log10 of the molar value.

As usually defined, the pKd is −log10 of the Kd, conventionally taken in molar units.

One data set addresses C1q (Homo sapiens) (UniProt P02745).
The next data set has as its target TLR4 (Homo sapiens) (UniProt O00206). Nature of the data set: SPR. (In SPR one partner is held on a chip, and binding of the other changes the refractive index at the surface.)
Chain of UniProt O00206 (O00206 24-631): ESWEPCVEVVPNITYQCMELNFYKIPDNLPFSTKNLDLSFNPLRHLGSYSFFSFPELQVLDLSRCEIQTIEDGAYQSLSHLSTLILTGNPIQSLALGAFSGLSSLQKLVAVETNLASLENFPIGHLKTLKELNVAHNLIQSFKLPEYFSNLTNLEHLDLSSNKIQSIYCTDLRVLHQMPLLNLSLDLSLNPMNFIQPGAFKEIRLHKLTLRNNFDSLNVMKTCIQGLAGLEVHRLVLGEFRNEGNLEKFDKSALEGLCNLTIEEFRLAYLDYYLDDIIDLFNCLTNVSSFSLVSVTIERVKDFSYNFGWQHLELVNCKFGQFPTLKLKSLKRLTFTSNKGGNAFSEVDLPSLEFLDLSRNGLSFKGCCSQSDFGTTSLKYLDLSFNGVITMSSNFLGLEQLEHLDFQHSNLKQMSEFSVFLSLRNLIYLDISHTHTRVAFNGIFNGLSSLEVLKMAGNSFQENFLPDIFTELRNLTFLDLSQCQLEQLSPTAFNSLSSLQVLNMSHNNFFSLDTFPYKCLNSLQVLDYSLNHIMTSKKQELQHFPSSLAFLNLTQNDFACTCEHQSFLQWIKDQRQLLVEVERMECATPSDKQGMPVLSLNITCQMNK

Chain of UniProt P02745 (P02745 23-245, chain 1 of 3): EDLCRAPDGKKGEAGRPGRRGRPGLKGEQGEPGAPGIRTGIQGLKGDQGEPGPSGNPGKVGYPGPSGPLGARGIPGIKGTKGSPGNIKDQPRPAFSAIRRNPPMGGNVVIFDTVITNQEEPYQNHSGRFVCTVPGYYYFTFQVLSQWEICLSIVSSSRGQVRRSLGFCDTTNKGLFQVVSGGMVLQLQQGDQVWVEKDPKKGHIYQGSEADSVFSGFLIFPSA
Chain of UniProt P02745 (P02746 28-253, chain 2 of 3, further chain): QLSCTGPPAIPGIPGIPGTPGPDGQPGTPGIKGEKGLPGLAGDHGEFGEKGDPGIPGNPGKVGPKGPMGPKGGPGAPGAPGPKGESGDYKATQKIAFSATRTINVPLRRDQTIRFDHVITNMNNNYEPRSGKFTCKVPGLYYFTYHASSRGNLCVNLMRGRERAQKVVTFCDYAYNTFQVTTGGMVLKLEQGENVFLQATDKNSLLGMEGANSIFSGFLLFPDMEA
Chain of UniProt P02745 (P02747 29-245, chain 3 of 3, further chain): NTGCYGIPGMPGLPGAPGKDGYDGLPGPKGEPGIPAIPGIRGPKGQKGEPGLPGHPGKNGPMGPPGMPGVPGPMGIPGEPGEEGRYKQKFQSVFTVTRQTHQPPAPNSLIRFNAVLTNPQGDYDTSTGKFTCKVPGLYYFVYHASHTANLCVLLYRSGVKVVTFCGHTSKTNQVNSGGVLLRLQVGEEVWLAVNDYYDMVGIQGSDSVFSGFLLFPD

In the case of HMGB1 (from UniProt P09429), the pKd with C1q (Homo sapiens) was 6.70.
In the case of pCTS-L (from UniProt P07711), in the data set with TLR4 (Homo sapiens), the pKd was 7.69.
